In assay [1] the target is Rabbit skeletal muscle actin (RMA), as actin filaments (F-actin) (rabbit) (UniProt P68135). As to the kind of experiment: open-flow TIRF microscopy of single filament growth.
The target of assay [2] is GST-549-SNAP-N-IQGAP1 (GST-SNAP-N-IQGAP1-6His, 1–522) (UniProt P46940). Nature of the assay: single-molecule step photobleaching.
Assay [3] concerns the target Rabbit skeletal muscle actin (RMA), as actin filaments (F-actin) (rabbit) (UniProt P68135). Nature of the assay: single-molecule microfluidics-assisted TIRF.

As a reminder, the stoichiometry N is a count of units in the complex or per binding partner. What is called koff is a measure of how fast the partners let go of each other.

In turn, “GST-C-IQGAP1 (675–1657) (from UniProt P46940 675-1657) (domain or fragment)” showed an average pause time in assay [1] of 14.7 s.

Substance “GST-549-SNAP-N-IQGAP1 (GST-SNAP-N-IQGAP1-6His, 1–522) (from UniProt P46940 1-522) (domain or fragment)” yielded a stoichiometry N in assay [2] of 2. Also, in assay [3], the average dwell time on filament sides turned out to be 6.8 min and the koff stood at 0.0025 s⁻¹.

These data come from publication PMC8886817.
